Assay [1] relates to Escherichia coli (UTI89). Briefly: Antimicrobial kill (microdilution) assay, MIC/MBC by CFU count. The conditions noted are these: for E. coli MIC: lowest concentration that inhibits the growth of 90% of the inoculation; for E. coli MIC / E. coli MBC: 3 hours, 0.1×PBS; for E. coli MBC: minimum bactericidal concentration; for antimicrobial activity against E. coli (in words): MIC/MBC based, mostly compared to full-length RNase 7. It is filed as cell-based. On the procedure:
(§1) The antimicrobial activity of RNase 7 and its fragments was estimated using a microdilution assay. Briefly, test bacteria (10^5) were incubated with several concentrations of RNase 7 and each fragment in 50 μl 0.1×PBS buffer for 3 hours in a 37° C. incubator. Each reaction was plated on the appropriate medium and grew overnight at 37° C. The antimicrobial activity was determined by the number of colony-forming units (CFUs) the following day. The minimum inhibition concentration (MIC) is defined as the lowest concentration that inhibits the growth of 90% of the inoculation and the minimum bactericidal concentration (MB C) is defined as the lowest concentration at which less than 99.99% of the initial inoculum is viable.
(§2) Antimicrobial activities of the recombinant peptides were estimated with a microdilution assay. Briefly, the test bacteria (10^4 CFUs) were incubated with various concentrations of RNase 7 and each fragment in 50 ul 0.1×PBS buffer for 3 hours at 37° C. After incubation on Agar plates overnight at 37° C., the number of colony-forming units (CFUs) at each peptide concentration was determined. Using untreated bacterial aliquots as baseline, the minimum inhibition concentration (MIC) was defined as the lowest concentration that inhibits the growth of 90% of the inoculation, and the minimum bactericidal concentration (MBC) was defined as the lowest concentration at which less than 99.99% of the initial inoculum is viable.

For assay [2], the system named is Staphylococcus saprophyticus (ATCC 15305). The assay is described as above. It is filed as cell-based. The conditions noted are these: for S. saprophyticus MIC: lowest concentration that inhibits the growth of 90% of the inoculation; for S. saprophyticus MIC / S. saprophyticus MBC: 3 hours, 0.1×PBS; for S. saprophyticus MBC: minimum bactericidal concentration; for antimicrobial activity against S. saprophyticus (in words): MIC/MBC based, mostly compared to full-length RNase 7. On the procedure: as §1, §2

Assay [3] relates to Proteus mirabilis (ATCC 7002). Described as above. The class given is cell-based. The conditions noted are these: for antimicrobial activity against P. mirabilis (in words): MIC/MBC based, mostly compared to full-length RNase 7; for P. mirabilis MIC: lowest concentration that inhibits the growth of 90% of the inoculation; for P. mirabilis MIC / P. mirabilis MBC: 3 hours, 0.1×PBS; for P. mirabilis MBC: minimum bactericidal concentration. On the procedure: Uropathogenic Escherichia coli (UTI89) was grown in Luria broth (LB) medium and plated on LB-agar. Uropathogenic Staphylococcus saprophyticus (ATCC 15305) was grown in LB and plated on Trypticase Soy Agar with 5% sheep blood (Fisher Scientific, Pittsburgh, Pa., USA). Uropathogenic Proteus mirabilis (ATCC 7002) was grown in LB and plated on MacConkey II Agar (Fisher Scientific, Pittsburgh, Pa., USA). These organisms were chosen as the primary organisms that account for a majority of Gram-negative and Gram-positive urinary tract infections (UTI). Anti-RNase 7 antibody was generated in rabbit with recombinant human RNase 7 (Biomatik, Wilmington, Del., USA)
as §2

For assay [4], the system named is S. saprophyticus. The assay can be described thus: Urinary condition functional assay (OD600 growth curves). The class given is cell-based, Staphylococcus saprophyticus. How it is done:
(§3) Because the urinary environment can have significant variation in salt concentration, ionic composition, and pH, an antimicrobial/bacteriostatic assay was performed to evaluate if pH, calcium, or ionic strength affects the activity of full-length RNase7 or its fragments. The highest activity fragment F:1-97 and lowest activity fragment F:72-128 for these experiments were chosen. Bacteria were inoculated in 1% peptone water and growth to log phase with OD600=0.5. Bacteria were diluted to 1:10 and 1 μl added to 100 μl of 1% peptone water with various pH, CaCl2 or NaCl concentrations that correspond to a physiologic range present in the urine in a 96-well flat bottom plate (Thermo Scientific, Nunc, Worcester, Mass.). To each well, 2 μM of RNase7 or its fragments were added.
(§4) Bacterial growth was monitored using an Absorbance microplate reader (BioTek Instruments, Winooski, Vt.) at a final volume of 110 μl. The turbidity of the culture was measured and recorded at t=0 and every 20 min thereafter for 10 hours using the absorbance at 600 nm (OD600). The values of OD600 values were plotted against times to generate growth curves.

Assay [5] relates to Proteus mirabilis. The assay is described as above. It is filed as cell-based. How it is done: as §3, §4
For assay [6], the system named is E. coli. The description is as above. It is filed as cell-based, Escherichia coli. The conditions noted are these: 2 μM peptide, 50, 150, 500 mM NaCl, OD600 for 10 hours, FIG. 4. On the procedure: as §3, §4

“Also recorded” adds a separate entry of the source. Marks after values point to notes of the source that are not given here. Primed or numbered codes have the meaning given here. No end group written: not given here. *: point of attachment. His tag″ = six-residue histidine tag (His-tag) at the NH2-terminus, N[C@@H](Cc1c[nH]cn1)C(=O)N[C@@H](Cc1c[nH]cn1)C(=O)N[C@@H](Cc1c[nH]cn1)C(=O)N[C@@H](Cc1c[nH]cn1)C(=O)N[C@@H](Cc1c[nH]cn1)C(=O)N[C@@H](Cc1c[nH]cn1)C(=O)*; His tag = six-residue histidine tag at the N-terminus, N[C@@H](Cc1c[nH]cn1)C(=O)N[C@@H](Cc1c[nH]cn1)C(=O)N[C@@H](Cc1c[nH]cn1)C(=O)N[C@@H](Cc1c[nH]cn1)C(=O)N[C@@H](Cc1c[nH]cn1)C(=O)N[C@@H](Cc1c[nH]cn1)C(=O)*

As to “F:1-45: recombinant N-terminal RNase 7 fragment, amino acids 1 to 45 (SEQ ID NO: 2), N-terminal His tag ({His tag″}-KPKGMTSSQWFKIQHMQPSPQACNSAMKNINKHTKRCKDLNTFLH; ends and bridges not checked; listed as Homo sapiens)”, in assay [1], the “E. coli MIC” value turned out to be 0.49 µM and the “E. coli MBC” value was 0.98 µM. In assay [2], the “S. saprophyticus MIC” value amounted to 0.13 µM and the “S. saprophyticus MBC” value is 0.5 µM. Further, in assay [3], the “antimicrobial activity against P. mirabilis (in words)” value was “no activity at high concentrations”, the “P. mirabilis MIC” value is reported as >7** uM and the “P. mirabilis MBC” value is reported as >7** uM.

With “F:72-128: recombinant C-terminal RNase 7 fragment, amino acids 72 to 128, N-terminal His tag ({His tag}-SHGPVSLTMCKLTSGKYPNCRYKEKRQNKSYVVACKPPQKKDSQQFHLVPVHLDRVL; ends and bridges not checked)”, in assay [1], the “antimicrobial activity against E. coli (in words)” value was “least activity”, the “E. coli MIC” value is given as 3.5** uM and the “E. coli MBC” value is 7* uM. In addition, in assay [2], the “S. saprophyticus MIC” value is given as 3.5** uM and the “S. saprophyticus MBC” value was >7** uM. Besides, the “activity on S. saprophyticus growth at various NaCl titers” value in assay [4] (2 μM peptide, 50, 150, 500 mM NaCl, OD600 for 10 hours, FIG. 7) is “minimal activity against S. saprophyticus at all NaCl concentrations”. Also, the “activity on S. saprophyticus growth at various pH levels” value in assay [4] (2 μM peptide, pH 5, 7, 9, OD600 for 10 hours, FIG. 6) is “minimal activity with enhanced growth at pH 7 and 9; also recorded: grew better with the addition of F:72-128 at pH 7 and 9”. Further, in assay [5] (2 μM peptide, 50, 150, 500 mM NaCl, OD600 for 10 hours, FIG. 10), the “activity on Proteus mirabilis growth at various NaCl titers” value is “minimal activity against P. mirabilis at all NaCl concentrations”. In assay [5] (2 μM peptide, pH 5, 7, 9, OD600 for 10 hours, FIG. 9), the “activity on Proteus mirabilis growth at various pH levels” value was “minimal activity with enhanced growth at pH 7 and 9”. For the same molecule, in assay [6], the “activity on E. coli growth at various NaCl titers” value is on record as “inhibitory effect of 500 mM NaCl against E. coli was diminished with the addition of F:72-128”. In assay [3], the “P. mirabilis MIC” value is recorded as >3.5** uM and the “P. mirabilis MBC” value was >3.5** uM.

Turning to “F:84-128: recombinant C-terminal RNase 7 fragment, amino acids 84 to 128, N-terminal His tag ({His tag}-TSGKYPNCRYKEKRQNKSYVVACKPPQKKDSQQFHLVPVHLDRVL; cysteine pairing not given here)”, in assay [1], the “antimicrobial activity against E. coli (in words)” value is recorded as “poor antimicrobial function against all uropathogens”, the “E. coli MIC” value is recorded as 1.92** uM and the “E. coli MBC” value is listed as >3.5** uM. Further, in assay [2], the “antimicrobial activity against S. saprophyticus (in words)” value is “poor antimicrobial function against all uropathogens”, the “S. saprophyticus MIC” value turned out to be 1.75 µM and the “S. saprophyticus MBC” value is given as 3.5* uM. For the same molecule, in assay [3], the “antimicrobial activity against P. mirabilis (in words)” value was “poor antimicrobial function against all uropathogens”, the “P. mirabilis MIC” value is >3.5** uM and the “P. mirabilis MBC” value is listed as >3.5** uM.

B1: F:30-128: recombinant C-terminal RNase 7 fragment, amino acids 30 to 128, N-terminal His tag (protein)
chain: INKHTKRCKDLNTFLHEPFSSVAATCQTPKIACKNGDKNCHQSHGPVSLTMCKLTSGKYPNCRYKEKRQNKSYVVACKPPQKKDSQQFHLVPVHLDRVL
modifications: left off: small tags and cut ends
notes: recombinant C-terminal RNase 7 fragment, amino acids 30 to 128, N-terminal His tag
In the case of B1, in assay [1], the “E. coli MIC” value was found to be 0.52 µM and the “E. coli MBC” value worked out at 2.07 µM. Besides, in assay [2], the “S. saprophyticus MIC” value is 0.88* uM and the “S. saprophyticus MBC” value is “.88 µM”. In assay [3], the “P. mirabilis MIC” value is >3.5** uM and the “P. mirabilis MBC” value is >3.5** uM.

B2: F:46-128: recombinant C-terminal RNase 7 fragment, amino acids 46 to 128, N-terminal His tag (protein)
chain: EPFSSVAATCQTPKIACKNGDKNCHQSHGPVSLTMCKLTSGKYPNCRYKEKRQNKSYVVACKPPQKKDSQQFHLVPVHLDRVL
modifications: left off: small tags and cut ends
notes: recombinant C-terminal RNase 7 fragment, amino acids 46 to 128, N-terminal His tag
For B2, in assay [1], the “E. coli MIC” value is 0.34 µM and the “E. coli MBC” value was “.68 µM”. For the same molecule, in assay [2], the “antimicrobial activity against S. saprophyticus (in words)” value is “MICs similar to full-length”, the “S. saprophyticus MIC” value is 0.22 µM and the “S. saprophyticus MBC” value is given as 1.75* uM. In assay [3], the “P. mirabilis MIC” value was 3.5 µM and the “P. mirabilis MBC” value was >3.5** uM.

B3: F:1-107: recombinant N-terminal RNase 7 fragment, amino acids 1 to 107 (SEQ ID NO: 6), N-terminal His tag (protein, listed as Homo sapiens)
chain: KPKGMTSSQWFKIQHMQPSPQACNSAMKNINKHTKRCKDLNTFLHEPFSSVAATCQTPKIACKNGDKNCHQSHGPVSLTMCKLTSGKYPNCRYKEKRQNKSYVVACK
modifications: N-terminal His tag
Turning to B3, in assay [1], the “E. coli MIC” value amounted to 0.57 µM and the “E. coli MBC” value was determined as 0.57 µM. Moreover, in assay [2], the “S. saprophyticus MIC” value is 0.49 µM and the “S. saprophyticus MBC” value is reported as >1.96* uM. For the same molecule, in assay [3], the “P. mirabilis MIC” value was “.44 µM” and the “P. mirabilis MBC” value was “.44 µM”.

B4: F:1-83: recombinant N-terminal RNase 7 fragment, amino acids 1 to 83 (SEQ ID NO: 4), N-terminal His tag (protein, listed as Homo sapiens)
chain: KPKGMTSSQWFKIQHMQPSPQACNSAMKNINKHTKRCKDLNTFLHEPFSSVAATCQTPKIACKNGDKNCHQSHGPVSLTMCKL
modifications: N-terminal His tag
For B4, in assay [1], the “E. coli MIC” value turned out to be 0.43 µM and the “E. coli MBC” value was 0.87 µM. Further, in assay [2], the “S. saprophyticus MIC” value worked out at 0.34 µM and the “S. saprophyticus MBC” value was 0.69 µM. Moreover, in assay [3], the “P. mirabilis MIC” value was “.44 µM” and the “P. mirabilis MBC” value is “.88 µM”.

B5: F:56-128: recombinant C-terminal RNase 7 fragment, amino acids 56 to 128, N-terminal His tag (protein)
chain: QTPKIACKNGDKNCHQSHGPVSLTMCKLTSGKYPNCRYKEKRQNKSYVVACKPPQKKDSQQFHLVPVHLDRVL
modifications: left off: small tags and cut ends
notes: recombinant C-terminal RNase 7 fragment, amino acids 56 to 128, N-terminal His tag
Take B5: in assay [1], the “E. coli MIC” value is 0.83 µM and the “E. coli MBC” value amounted to 1.65 µM. Besides, in assay [2], the “antimicrobial activity against S. saprophyticus (in words)” value is listed as “MICs similar to full-length”, the “S. saprophyticus MIC” value worked out at 0.22 µM and the “S. saprophyticus MBC” value is 1.75* uM. In addition, in assay [3], the “P. mirabilis MIC” value is >7** uM and the “P. mirabilis MBC” value was >7** uM.

The values are drawn from patent publication US20150072922A1, “RNASE 7 ANTIMICROBIAL PEPTIDES” (THE RESEARCH INSTITUTE AT NATIONWIDE CHILDREN'S HOSPITAL, priority 2012, published 2015).
